The assay has as its target Calmodulin (UniProt P0DP23 1-149). Nature of the assay: other fluorescence titration.
On to DRYLAIVHPMKSRLRRT (domain or fragment) [BSAT1R_(125-141), FRET biosensor with AT1R a.a. 125-141 (SMD2) between EYFPc and ECFP], for which the Kd (commonly a measure of binding affinity in units of concentration) came out at 13.9 µM.
With YTLIWKALKKAYEIQKNK (domain or fragment) [BSAT1R_(215-232), FRET biosensor with AT1R a.a. 215-232 (part of SMD3) between EYFPc and ECFP], the Kd was found to be 1.05 µM.
For DQALAIVHPMKSQLRQT (domain or fragment) [BSAT1R_(125-141mut), FRET biosensor with mutant AT1R a.a. 125-141 (SMD2) between EYFPc and ECFP], the Kd was above 318 µM.
In the case of FKRYFLQLLKYIPPKAKSH (domain or fragment) [BSAT1R_(309-327), FRET biosensor with AT1R a.a. 309-327 (SMD4JM) between EYFPc and ECFP] it was 0.51 µM; in that of AKRYALQLLKAIPPKAQSH (domain or fragment) [BSAT1R_(309-327mut), FRET biosensor with mutant AT1R a.a. 309-327 (SMD4JM) between EYFPc and ECFP], 6.6 µM.
In the case of YTLIAKALKKAAEIQKNQPRNDDIAKII (domain or fragment) [BSAT1R_(215-242mut), FRET biosensor with mutant AT1R a.a. 215-242 (SMD3) between EYFPc and ECFP] it was 4.52 µM; in that of YTLIWKALKKAYEIQKNKPRNDDIFKII (domain or fragment) [BSAT1R_(215-242), FRET biosensor with AT1R a.a. 215-242 (entire SMD3) between EYFPc and ECFP], 0.36 µM.

(Values after PMC5960627 (Biochemical pharmacology, 2018).)
